In article PMC9089796, “Oxidative stress promotes fibrosis in systemic sclerosis through stabilization of a kinase-phosphatase complex” (JCI Insight, 2022):

Molecular target: T1, full-length human SRC, purified (human, UniProt P12931 1-536)
T1 construct: also called full-length SRC; not shown: GST, N-terminal, cleaved
Test: pull-down; His6-tagged PTP4A1 on Ni-NTA agarose beads (untreated, or treated with 0.5 mM H2O2 or 20 mM DTT for 1 hour); 0.5 μg SRC or 17.2 nmol GST-tagged SH3SH2 in 1 mL 60 mM HEPES pH 7.4, 5 mM MgCl2, 5 mM MnCl2, 1% BSA; 4°C, 2 hours; Western blotting
Conditions: both partners purified

B1: His6-tagged oxidized PTP4A1 (residues 1-160), bound to Ni-NTA agarose (domain or fragment, human, UniProt Q93096 1-160, looked up)
chain: MARMNRPAPVEVTYKNMRFLITHNPTNATLNKFIEELKKYGVTTIVRVCEATYDTTLVEKEGIHVLDWPFDDGAPPSNQIVDDWLSLVKIKFREEPGCCIAVHCVAGLGRAPVLVALALIEGGMKYEDAVQFIRQKRRGAFNSKQLLYLEKYRPKMRLRF
modifications: oxidized: disulfide bond between Cys104 and Cys49
notes: also called oxo-PTP4A1; source: E. coli BL21 (DE3), purified (Ni-NTA, cation exchange); beads incubated with 0.5 mM H2O2 for 1 hour; not shown: His6, N-terminal, kept
B1: binds.

B2: His6-tagged PTP4A1 (residues 1-160), untreated, bound to Ni-NTA agarose (domain or fragment, human, UniProt Q93096 1-160, looked up)
chain: B1 chain
notes: Not treated with H2O2 or DTT; also called protein tyrosine phosphatase 4A type 1; untreated beads containing both oxidized and reduced PTP4A1; source: E. coli BL21 (DE3), purified (Ni-NTA, cation exchange); not shown: His6, N-terminal, kept
B2: binds.
